Positions count from the first letter of the chain named. In names and notes the source's numbering stands.

Results on three proteins are retold here after paper PMC4760221, “Phosphorylation Regulates the Endocytic Function of the Yeast Dynamin-Related Protein Vps1” (Molecular and Cellular Biology, 2015).

This series deals with the molecule itself. Put plainly: negative-stain transmission electron microscopy; purified recombinant Vps1; oligomeric single rings and double-ring structures seen after negative staining.

B1: His-tagged Vps1 wild type (natural protein, S. cerevisiae, UniProt P21576 1-704, looked up)
chain: MDEHLISTINKLQDALAPLGGGSQSPIDLPQITVVGSQSSGKSSVLENIVGRDFLPRGTGIVTRRPLVLQLINRRPKKSEHAKVNQTANELIDLNINDDDKKKDESGKHQNEGQSEDNKEEWGEFLHLPGKKFYNFDEIRKEIVKETDKVTGANSGISSVPINLRIYSPHVLTLTLVDLPGLTKVPVGDQPPDIERQIKDMLLKYISKPNAIILSVNAANTDLANSDGLKLAREVDPEGTRTIGVLTKVDLMDQGTDVIDILAGRVIPLRYGYIPVINRGQKDIEHKKTIREALENERKFFENHPSYSSKAHYCGTPYLAKKLNSILLHHIRQTLPEIKAKIEATLKKYQNELINLGPETMDSASSVVLSMITDFSNEYAGILDGEAKELSSQELSGGARISYVFHETFKNGVDSLDPFDQIKDSDIRTIMYNSSGSAPSLFVGTEAFEVLVKQQIRRFEEPSLRLVTLVFDELVRMLKQIISQPKYSRYPALREAISNQFIQFLKDATIPTNEFVVDIIKAEQTYINTAHPDLLKGSQAMVMVEEKLHPRQVAVDPKTGKPLPTQPSSSKAPVMEEKSGFFGGFFSTKNKKKLAALESPPPVLKATGQMTERETMETEVIKLLISSYFSIVKRTIADIIPKALMLKLIVKSKTDIQKVLLEKLYGKQDIEELTKENDITIQRRKECKKMVEILRNASQIVSSV
notes: Vps1, dynamin-related protein of S. cerevisiae; also called recombinant Vps1; wild-type Vps1
Turning to B1, the binding result is recorded as “binds”.

B2: His-tagged Vps1 S599V (natural protein, S. cerevisiae, UniProt P21576 1-704, looked up)
chain: B1 chain with S599V
notes: Vps1, dynamin-related protein of S. cerevisiae, with S599V; also called S599V mutant; pKA971
Take B2: the binding result is given as “binds”.

B3: His-tagged Vps1 S599D (natural protein, S. cerevisiae, UniProt P21576 1-704, looked up)
chain: B1 chain with S599D
notes: Vps1, dynamin-related protein of S. cerevisiae, with S599D; also called S599D mutant; pKA972
As to B3, the binding result is “binds”.
